The supplement of paper PMC7125110
± gives the standard error. Fewer inactive variants are shown than the library holds.

B1: glmS ribozyme (parent)
chain: AUAAAAGCGCCAGAACUACAGAAAUGUAGUUGACGAGGAGGAGGUUUAUCGAAUUUUCGGCGGAUGCCUCCAAA

Columns and labels:
Conditions in all cases: with glucosamine-6-phosphate
[1] = variants of: B1; assay: self-cleavage kobs at 40 uM GlcN6P; higher = faster cleavage; RNA array
Method in brief: (§1)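 Barcoded ribozyme variants on sequenced MiSeq chips were transcribed in situ by E. coli RNA polymerase and followed at 37 °C through a hybridised Cy3 probe. Glucosamine-6-phosphate at 40 μM to 10 mM in HEPES/KCl/Mg(OAc)2 buffer was flowed in, and tiles were imaged over ~14 h. Signals were normalised to baseline and to non-cleaving reference variants, and per-tile medians were fit to one- or two-exponential decays to give kobs. Weighted Michaelis–Menten fits across concentrations gave kcat and KM.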

[2] = variants of: B1; assay: self-cleavage kobs at 160 uM GlcN6P; higher = faster cleavage; RNA array
Method in brief: as §1

[3] = variants of: B1; assay: self-cleavage kobs at 640 uM GlcN6P; higher = faster cleavage; RNA array
Method in brief: as §1

[4] = variants of: B1; assay: self-cleavage kobs at 10000 uM GlcN6P; higher = faster cleavage; RNA array
Method in brief: as §1

[5] = variants of: B1; assay: self-cleavage kobs at 2500 uM GlcN6P; higher = faster cleavage; RNA array
Method in brief: as §1

Row | Variant | self-cleavage kobs at 40 uM GlcN6P [1] [s⁻¹] | self-cleavage kobs at 160 uM GlcN6P [2] [s⁻¹] | self-cleavage kobs at 640 uM GlcN6P [3] [s⁻¹] | self-cleavage kobs at 10000 uM GlcN6P [4] [s⁻¹] | self-cleavage kobs at 2500 uM GlcN6P [5] [s⁻¹]
1 | A33G U56A | < 1e-05 | < 1e-05 | < 1e-05 | < 1e-05 | 
2 | U31C C68A | < 1e-05 |  |  | < 1e-05 | 
3 | A33C A52U | < 1e-05 |  | < 1e-05 | < 1e-05 | 
4 | C34A G41A U65G | < 1e-05 |  |  |  | 
5 | C34G G35C | < 1e-05 |  |  |  | 
6 | G32U A36C C68A | < 1e-05 |  |  | < 1e-05 | 
7 | U31G U45G C61A | < 1e-05 |  |  | < 1e-05 | < 1e-05
8 | C34G C50G G59A C67G | 3.78e-05 ± 1.8e-05 | 0.000158 ± 3.7e-05 |  |  | 0.000115 ± 2.3e-05
9 | A33U C70A | < 1e-05 |  |  |  | 
10 | A33C G40A C67G | < 1e-05 |  |  |  | 
11 | C34A U47G U54G G59U C68G | 0.000664 ± 0.0002 |  |  | 0.000474 ± 0.00012 | 
12 | C34A G43C A48G | < 1e-05 |  |  |  | 
13 | A33C G40C G44U C50U | < 1e-05 |  |  |  | < 1e-05
14 | A33U C34U G60C C68U | < 1e-05 |  |  |  | < 1e-05
15 | A33C A42U C61A | < 1e-05 |  |  |  | 
16 | A33U C67U C70G | < 1e-05 |  |  |  | 
17 | C34G A42G | < 1e-05 |  | < 1e-05 | < 1e-05 | < 1e-05
18 | G32U C34G | < 1e-05 | < 1e-05 | < 1e-05 | < 1e-05 | 
19 | G32U C34A A48U C70A | < 1e-05 |  |  |  | 
20 | A33G C50U C67A | < 1e-05 |  |  |  | 
21 | U31G C61A | < 1e-05 | < 1e-05 |  | < 1e-05 | < 1e-05
22 | U31G C61G | < 1e-05 | < 1e-05 | < 1e-05 | < 1e-05 | 
23 | U31G U55A | 0.000446 ± 7.1e-05 | 0.00128 ± 0.00045 | 0.00221 ± 0.00041 | 0.0118 ± 0.0023 | 0.00465 ± 0.0011
24 | U31G U55G | 0.000486 ± 0.0001 | 0.000859 ± 0.00014 | 0.00296 ± 0.00071 | 0.0152 ± 0.0067 | 0.0116 ± 0.0027
25 | G32C U47G C67G | 0.000392 ± 0.00015 |  |  | 6.01e-05 ± 2.5e-05 | 
26 | C34A G59U | < 1e-05 | < 1e-05 | < 1e-05 | < 1e-05 | < 1e-05
27 | G32U C34G C68G | 4.91e-05 ± 1.8e-05 |  |  | 3.41e-05 ± 1.6e-05 | 

Row | Variant | self-cleavage kobs at 40 uM GlcN6P [1] [s⁻¹] | self-cleavage kobs at 160 uM GlcN6P [2] [s⁻¹] | self-cleavage kobs at 640 uM GlcN6P [3] [s⁻¹] | self-cleavage kobs at 10000 uM GlcN6P [4] [s⁻¹] | self-cleavage kobs at 2500 uM GlcN6P [5] [s⁻¹]
28 | G32U A36C A53U U54A G63U | < 1e-05 |  |  | < 1e-05 | 
29 | C34A G40C U46C | < 1e-05 |  |  |  | 
30 | G32C U57A | < 1e-05 |  |  |  | 
31 | G32A A39C G44U | < 1e-05 |  |  | < 1e-05 | 
32 | U31G C34U A42G | < 1e-05 | < 1e-05 | < 1e-05 | < 1e-05 | < 1e-05
33 | A33U U46A | < 1e-05 | < 1e-05 | < 1e-05 |  | 
34 | C34G A53G U56G C67U | < 1e-05 |  |  |  | 
35 | G32U G37U A39G | < 1e-05 |  |  |  | < 1e-05
36 | C34G A48G C68G | 8.52e-05 ± 3.4e-05 |  |  |  | 
37 | C34A C61A G63U | < 1e-05 |  |  | < 1e-05 | 
38 | G32A C61G U69C | 3.85e-05 ± 1.8e-05 |  |  | 3.49e-05 ± 1.7e-05 | 7.4e-05 ± 2.3e-05
39 | G32C G35A A48U A52U U54C C67U | < 1e-05 | < 1e-05 | < 1e-05 |  | 
40 | G32C G44C U55C C68A C70U | < 1e-05 |  |  |  | < 1e-05
41 | U31G A64U | < 1e-05 | < 1e-05 | < 1e-05 |  | < 1e-05
42 | A33G A64C | < 1e-05 | < 1e-05 | < 1e-05 | < 1e-05 | < 1e-05
43 | G32C G51A G66A | < 1e-05 |  | < 1e-05 | < 1e-05 | < 1e-05
44 | A33G A52C U55G | < 1e-05 |  |  |  | 
45 | C34A A39G A48U C68A | < 1e-05 | < 1e-05 |  | < 1e-05 | < 1e-05
46 | G32U G35A U57C | < 1e-05 | < 1e-05 |  |  | 
47 | U31G U54G C67G C68A C70G | 4.46e-05 ± 2.2e-05 |  |  |  | 0.000243 ± 6.9e-05
48 | G32C C34A | < 1e-05 | < 1e-05 | < 1e-05 | < 1e-05 | 
49 | G32A A36C U45C C70U | < 1e-05 |  |  | < 1e-05 | 
50 | U31C G32C G35A G59U G66U C71U | < 1e-05 |  |  | < 1e-05 | < 1e-05
51 | U31G C50G C67U | 8.62e-05 ± 1.8e-05 |  |  | 0.000109 ± 2.3e-05 | 
52 | U31A G38U A42C U55G | < 1e-05 |  | < 1e-05 |  | 
53 | A33G U47A | < 1e-05 |  |  | < 1e-05 | 
